{
  "source": "patent US20260158160A1",
  "about": "(MACFARLANE BURNET INSTITUTE FOR MEDICAL RESEARCH AND PUBLIC …, published 2026)",
  "target": "T1, SARS-CoV-2 spike protein expressed on Ramos-S cells (SARS-CoV-2, UniProt P0DTC2 14-1273)",
  "T1 construct": "whole, on cells; also called S protein; Ramos cells expressing transfected spike protein",
  "assay": "flow cytometry on Ramos-S cells",
  "data": [
    {"binder": "CC40.8-H429F (antibody, also called CC40.8-HF) heavy: not shown light: SYELTQPPSVSVSPGQTARITCSGDALPKRYAYWYQQKSGQAPILVIYEDKKRPSGIPERLSGSKSGTVATLTISGAQVEDEADYYCYSTDSSGNHAVFGGGTQLTVLGQPKAAPSVFIFPPSDEQLKSGTASVVCLLNNFYPREAKVQWKVDNALQSGNSQESVTEQDSKDSTYSLSSTLTLSKADYEKHKVYACEVTHQGLSSPVTKSFNRGEC", "values": [
      {"measurement": "binding result", "value": "binds"}
    ]}
  ]
}
